The test addresses Fc-tagged human CD47-ECD protein (CD47-Fc) (human). Description: ELISA on coated human CD47-Fc; row printed as Affinity (µg/mL). On the technique in general: ELISA stands for enzyme-linked immunosorbent assay.

Chain of Fc-tagged human CD47-ECD protein (CD47-Fc) (human) (chain, as listed by the source limits assumed): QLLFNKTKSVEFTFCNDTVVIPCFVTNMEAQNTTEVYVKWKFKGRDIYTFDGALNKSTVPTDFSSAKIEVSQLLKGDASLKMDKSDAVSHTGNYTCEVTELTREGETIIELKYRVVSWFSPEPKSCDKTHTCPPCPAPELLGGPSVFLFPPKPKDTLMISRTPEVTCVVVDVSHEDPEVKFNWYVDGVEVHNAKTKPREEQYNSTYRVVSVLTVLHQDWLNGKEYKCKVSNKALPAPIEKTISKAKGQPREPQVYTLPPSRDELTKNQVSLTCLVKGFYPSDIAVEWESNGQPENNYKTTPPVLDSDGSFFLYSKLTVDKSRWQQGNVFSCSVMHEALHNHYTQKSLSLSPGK

B1: Antibody 17 (antibody, human IgG1, kappa, V domains shown)
VH: QVQLQESGPGLVKPSETLSLTCTVSGGSLDNYYWSWIRQPPGKGLEWIGYIYYSGNTNYNPSLKSRVTISVDTSKNQFSLRLRSVTAADTAVYYCARGGRFLERYWGQGTLVTVSS
VL: DIQMTQSPSSVSASVGDRVTISCRANQAIGTWLAWYQQKPGKAPKLLIYAASTLQSGVPSRFSGSGSGTEFTLTISSLQAEDVAVYYCQQYYTTPLTFGGGTKLEIKR
B1: the EC50 (usually the concentration at which the effect is half-maximal) was 0.088 µg/mL.
